Laboratory results taken from the domain aggregation screens of Martell et al. (2025).

Assay: soluble fraction after stress (log2 fold change); higher = more stays soluble; pooled small domains, quantitative proteomics
Conditions: stress: 50 degC
In short: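 Quantitative proteomics served as the high-throughput read-out for pooled custom libraries of small protein domains. Each was stressed at 50°C. Aggregation propensity is expressed as the base-two log fold change in soluble protein after stress. A higher value means a larger share of the protein remains in solution.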

Sequence | soluble fraction (log2)
HMRETELPVTIISAGRILAENLHLAGRDGGWLEAELKRRSLTAEQVLLLTVDAAGTVYLVRKEDL | -0.0641
HMDDPWHNLANAIVAVAADDYRSALRNEDEGLLKSLELFFHSEWYRILTDVDADRLLGMLRRERS | -1.62
HMLSDEEKMAALNEQARQRGFTISPGVLPYLITHYQRDMHSLSMILDALDRYSLQTKRTITLPLLHDLLQQ | -1.06
HMTSEVLTNATIVKMVKAKLSDDIIIDEINNARVNFDVSPEGIKSLTAQNVTEPVIETMKKAVAAQESI | 0.479
HMAASTPGTVTGSVVNVRPDPSTNNDRIGVIYQGTKVEILAQVGEWYNIQFGPVSGWVHKDYISTGA | 0.00638
HMESNDSNIEDDFYEGLKSMRKGDLKMSVVFFTRVIEKKPTFAEAWNRRATVYYMLGKFDKSMFDINETLK | -0.115
HMTETPDDLLAALKKNKKAQATFDAFSPSNKKEYILWITEAKTEATRTKRLETAIEWMSEGKARNW | -0.222
HMAPVTPEERAQAMEEYKAMVTIEGYTPPKNIIEQNYKRGLWSETMLNMAVTKGAITEAEKLEIMN | 0.124
HMNNQMTFSKFLNEVDAGRVVEVEIQGNNIKGVLADGNRFNTFSPNYPNLVEKLSDKGVSITAAPK | 0.0484
HMVEPIEESISQLSLLLQSLYEDGKSEVSFEELIRSDRSRVSLFLALLFMAQRGNVYLEQEELFGDLRVKN | 0.0123
HMGNIITQEAAVKLAQDRVPNATLVKIEYDFDDGRPVYEGELREGRWEYEFEIDAATGEFLKWEKD | 0.04
HMYLYADIYKKLEEKIKNMEVGEKLPSERAMVQEYGVSRNVLREALVLLSERGLIEIRPGKGSYVTNQQ | -0.436
HMGKTRSTDRTRRAILDAASDLMGKHGTSVSLARIAEAAGMSKGGLLHHFPSRNDLIRALGED | 0.189
HMAEPIAAGKYTVSTSGSVLNMRVSPDADSQVLEKIPNGTIVEVTKSVLGWAYVTYNSAQGWVSSAYLV | 0.15
HMEFQEQLYRLRKQAGLSQEELSHIIGVSRQAVQKWEAGSARPDLDNLIALASHFKLSLDQLVGLT | -0.555
HMAMDYEGFKKSVYALTSIDLNAYKERQMKRRIDTLIAKNKYNGYEDYTAAIKKDKALFEEFVNYLTIN | -0.284
HMPGKVSDAGATAKDNRLFLEAVFWRVRTGSPWRDLPPAFGHWNSQFRRFRRWAKAGVFESLFNA | 0.0893
HMALWFDEWKKYQDTIASADLLPDKAERDALIAQAEDRFNYWMDIYPRSASLNHSFDDLYEEHRRKIE | -0.75
HMGTPKMPLSLYLSMVENLRSLKRFALVNQQVKDGFVFFNDVAGIKRLQELLNYHNTGEKPSE | -1.39

Sequence | soluble fraction (log2)
HMAEKEYYYATDALNLRQGPGMEHTVKGEVVLGERVALLGLEGKWAKIQNAQGTTGYVFSAYLAPS | 0.0931
HMWDRFGELDSAEEINRIAAAELREGDIDALKVLAEENGLDKDDVEDYIDRLIDELTTPELAAIGKLDV | 0.0934
HMATEWLSSKEAAQRLGVSAATLYAYVSRGLLRSEGSSGQRERRYRADDVAQLRRRREVGRKAESIAASTL | -0.433
HMSVERIEPPLPLIDTLLALRDALERPLSREENAFLSRRFAGGATRAQIDALAAQFRGAAAAESKV | 0.104
HMVSSVAAISQMIDEKDRYTSEHSHRVAEYARLIGAHMGFAGEELDSLYRSALLHDIGKIAVPDAILNK | -0.338
HMSANVSMEEALRRTSQAHSLAGKWMRRVLQMAQGRDLIEQMQREAQEAHLPELIGMSVQLEFIRRG | -0.11
HMPPQPATQNTKAQVMQLAREKELMAGEGRGANVEALEKFANEHGISLRGMTEEQAEQLVKLLMEYTP | -0.258
HMLAVEKIEFVGNERIAAADLESALSALYDRPMTTISDDEIAKLLSGFSLIETFTSQAEPPHTLRVNIRE | -0.141
HMRAVFEQLRIGQTLAGVVKAQEKGFSLVEIDGQTVAMRLPHPAAVGDTLRLRFAGHMPQAVFLLES | -0.561
HMLTAPMPGIVTEILVKEGQRVRSGQPLMILEAMKMEHQVTAPKSGQIEKIYFSEGEKVDMGSDLLSIS | 0.181
HMTVDTSELEEMIDDLIKEHPNEWERYSSGEKKVQGFFVGQVMKATSGQADGKAINQILSKRVKS | 0.354
HMKRGDAYASEMIARLKEAHLIVMEGTLYPLLTRLKNDGLLSYRWEESTQGPPRKYYSITPVG | 0.424
HMAGPRRRLLDAAIDRAAERGLGDLSLRALAEELGTSHRMLSHHFGSKDGLWLAIVEEVERRQ | -0.952
HMKNINTNIGKNLKRIRKLRGLTIDALATSSGVSKSMISEIERGIRNPSITIIWSLANALKTPLNYFLKE | -0.115
HMNDVLVGAIPESASGSRLDKVMPSVFPPYSRSQLQVWLKQGRILMGNGIPSPRLIVSGGEVLSLVVPELP | -0.971
HMQNLETVEEIKELALNYLDKYQPSKKSLQVYLFRKAIDAQSNSVEKSEILKKIETVLTDLEEQGILNDAL | 0.0664
HMPRYQQIARQLKTAIEHGELKPGARLPSSRTWSQELGISRSTVESAYTELVAQGWLERRGQAGTFVSAQL | -0.749
HMSESGTFRAEAADAGRRLDVALAERLRLSRAAAQRLIAAGLVLVEGSPARKRQILHAGETVAWRAAPP | -0.127
HMGVRVEVDAVTPPGAMASGSVVFSDGESKKWSVDQFGRLAMTGGAPDYKPSDQDVMEFQQQLEQSL | 0.054
